We go through four proteins from patent US20120329854.

In series [1] the target is histone H3 in untreated nucleosomes purified from HeLa cells, P68431.
Series [2] has as its target H3K4me3T6ph peptide (H3 tail residues 1-20), P68431.
For series [3], the target named is H3K4me3 peptide (H3 tail residues 1-20), P68431.
The target of series [4] is H3K4me2 peptide (H3 tail residues 1-20), P68431.
Series [5] addresses H3K4me2T6ph peptide (H3 tail residues 1-20), P68431.

B1: purified recombinant active PKCµ (ProQinase) (protein)
chain: MSAPPVLRPPSPLLPVAAAAAAAAAALVPGSGPGPAPFLAPVAAPVGGISFHLQIGLSREPVLLLQDSSGDYSLAHVREMACSIVDQKFPECGFYGMYDKILLFRHDPTSENILQLVKAASDIQEGDLIEVVLSASATFEDFQIRPHALFVHSYRAPAFCDHCGEMLWGLVRQGLKCEGCGLNYHKRCAFKIPNNCSGVRRRRLSNVSLTGVSTIRTSSAELSTSAPDEPLLQKSPSESFIGREKRSNSQSYIGRPIHLDKILMSKVKVPHTFVIHSYTRPTVCQYCKKLLKGLFRQGLQCKDCRFNCHKRCAPKVPNNCLGEVTINGDLLSPGAESDVVMEEGSDDNDSERNSGLMDDMEEAMVQDAEMAMAECQNDSGEMQDPDPDHEDANRTISPSTSNNIPLMRVVQSVKHTKRKSSTVMKEGWMVHYTSKDTLRKRHYWRLDSKCITLFQNDTGSRYYKEIPLSEILSLEPVKTSALIPNGANPHCFEITTANVVYYVGENVVNPSSPSPNNSVLTSGVGADVARMWEIAIQHALMPVIPKGSSVGTGTNLHRDISVSISVSNCQIQENVDISTVYQIFPDEVLGSGQFGIVYGGKHRKTGRDVAIKIIDKLRFPTKQESQLRNEVAILQNLHHPGVVNLECMFETPERVFVVMEKLHGDMLEMILSSEKGRLPEHITKFLITQILVALRHLHFKNIVHCDLKPENVLLASADPFPQVKLCDFGFARIIGEKSFRRSVVGTPAYLAPEVLRNKGYNRSLDMWSVGVIIYVSLSGTFPFNEDEDIHDQIQNAAFMYPPNPWKEISHEAIDLINNLLQVKMRKRYSVDKTLSHPWLQDYQTWLDLRELECKIGERYITHESDDLRWEKYAGEQGLQYPTHLINPSASHSDTPETEETEMKALGERVSIL
For the protein B1, in series [1], the “phosphorylation of nucleosomes at H3T6 (in vitro kinase assay, Western blot with α-H3T6ph)” value (“phosphorylation of nucleosomes at H3T6” below) is “only PKCα, 131 and 132 phosphorylate nucleosomes at H3T6 (PKCµ tested, no phosphorylation)”.

B2: purified recombinant active PKCι (ProQinase) (protein)
chain: MSHTVAGGGSGDHSHQVRVKAYYRGDIMITHFEPSISFEGLCNEVRDMCSFDNEQLFTMKWIDEEGDPCTVSSQLELEEAFRLYELNKDSELLIHVFPCVPERPGMPCPGEDKSIYRRGARRWRKLYCANGHTFQAKRFNRRAHCAICTDRIWGLGRQGYKCINCKLLVHKKCHKLVTIECGRHSLPQEPVMPMDQSSMHSDHAQTVIPYNPSSHESLDQVGEEKEAMNTRESGKASSSLGLQDFDLLRVIGRGSYAKVLLVRLKKTDRIYAMKVVKKELVNDDEDIDWVQTEKHVFEQASNHPFLVGLHSCFQTESRLFFVIEYVNGGDLMFHMQRQRKLPEEHARFYSAEISLALNYLHERGIIYRDLKLDNVLLDSEGHIKLTDYGMCKEGLRPGDTTSTFCGTPNYIAPEILRGEDYGFSVDWWALGVLMFEMMAGRSPFDIVGSSDNPDQNTEDYLFQVILEKQIRIPRSLSVKAASVLKSFLNKDPKERLGCHPQTGFADIQGHPFFRNVDWDMMEQKQVVPPFKPNISGEFGLDNFDSQFTNEPVQLTPDDDDIVRKIDQSEFEGFEYINPLLMSAEECV
On to B2, for which the “phosphorylation of nucleosomes at H3T6” value in series [1] is “only PKCα, 131 and 132 phosphorylate nucleosomes at H3T6 (PKCι tested, no phosphorylation)”.

B3: purified recombinant active PKCζ (ProQinase) (protein)
chain: MPSRTGPKMEGSGGRVRLKAHYGGDIFITSVDAATTFEELCEEVRDMCRLHQQHPLTLKWVDSEGDPCTVSSQMELEEAFRLARQCRDEGLIIHVFPSTPEQPGLPCPGEDKSIYRRGARRWRKLYRANGHLFQAKRFNRRAYCGQCSERIWGLARQGYRCINCKLLVHKRCHGLVPLTCRKHMDSVMPSQEPPVDDKNEDADLPSEETDGIAYISSSRKHDSIKDDSEDLKPVIDGMDGIKISQGLGLQDFDLIRVIGRGSYAKVLLVRLKKNDQIYAMKVVKKELVHDDEDIDWVQTEKHVFEQASSNPFLVGLHSCFQTTSRLFLVIEYVNGGDLMFHMQRQRKLPEEHARFYAAEICIALNFLHERGIIYRDLKLDNVLLDADGHIKLTDYGMCKEGLGPGDTTSTFCGTPNYIAPEILRGEEYGFSVDWWALGVLMFEMMAGRSPFDIITDNPDMNTEDYLFQVILEKPIRIPRFLSVKASHVLKGFLNKDPKERLGCRPQTGFSDIKSHAFFRSIDWDLLEKKQALPPFQPQITDDYGLDNFDTQFTSEPVQLTPDDEDAIKRIDQSEFEGFEYINPLLLSTEESV
Turning to B3, the “phosphorylation of nucleosomes at H3T6” value in series [1] was “only PKCα, 131 and 132 phosphorylate nucleosomes at H3T6 (PKCζ tested, no phosphorylation)”.

B4: baculovirus expressed and purified GST-JARID1B (protein)
chain: MEAATTLHPGPRPALPLGGPGPLGEFLPPPECPVFEPSWEEFADPFAFIHKIRPIAEQTGICKVRPPPDWQPPFACDVDKLHFTPRIQRLNELEAQTRVKLNFLDQIAKYWELQGSTLKIPHVERKILDLFQLNKLVAEEGGFAVVCKDRKWTKIATKMGFAPGKAVGSHIRGHYERILNPYNLFLSGDSLRCLQKPNLTTDTKDKEYKPHDIPQRQSVQPSETCPPARRAKRMRAEAMNIKIEPEETTEARTHNLRRRMGCPTPKCENEKEMKSSIKQEPIERKDYIVENEKEKPKSRSKKATNAVDLYVCLLCGSGNDEDRLLLCDGCDDSYHTFCLIPPLHDVPKGDWRCPKCLAQECSKPQEAFGFEQAARDYTLRTFGEMADAFKSDYFNMPVHMVPTELVEKEFWRLVSTIEEDVTVEYGADIASKEFGSGFPVRDGKIKLSPEEEEYLDSGWNLNNMPVMEQSVLAHITADICGMKLPWLYVGMCFSSFCWHIEDHWSYSINYLHWGEPKTWYGVPGYAAEQLENVMKKLAPELFVSQPDLLHQLVTIMNPNTLMTHEVPVYRTNQCAGEFVITFPRAYHSGFNQGFNFAEAVNFCTVDWLPLGRQCVEHYRLLHRYCVFSHDEMICKMASKADVLDVVVASTVQKDMAIMIEDEKALRETVRKLGVIDSERMDFELLPDDERQCVKCKTTCFMSAISCSCKPGLLVCLHHVKELCSCPPYKYKLRYRYTLDDLYPMMNALKLRAESYNEWALNVNEALEAKINKKKSLVSFKALIEESEMKKFPDNDLLRHLRLVTQDAEKCASVAQQLLNGKRQTRYRSGGGKSQNQLTVNELRQFVTQLYALPCVLSQTPLLKDLLNRVEDFQQHSQKLLSEETPSAAELQDLLDVSFEFDVELPQLAEMRIRLEQARWLEEVQQACLDPSSLTLDDMRRLIDLGVGLAPYSAVEKAMARLQELLTVSEHWDDKAKSLLKARPRHSLNSLATAVKEIEEIPAYLPNGAALKDSVQRARDWLQDVEGLQAGGRVPVLDTLIELVTRGRSIPVHLNSLPRLETLVAEVQAWKECAVNTFLTENSPYSLLEVLCPRCDIGLLGLKRKQRKLKEPLPNGKKKSTKLESLSDLERALTESKETASAMATLGEARLREMEALQSLRLANEGKLLSPLQDVDIKICLCQKAPAAPMIQCELCRDAFHTSCVAVPSISQGLRIWLCPHCRRSEKPPLEKILPLLASLQRIRVRLPEGDALRYMIERTVNWQHRAQQLLSSGNLKFVQDRVGSGLLYSRWQASAGQVSDTNKVSQPPGTTSFSLPDDWDNRTSYLHSPFSTGRSCIPLHGVSPEVNELLMEAQLLQVSLPEIQELYQTLLAKPSPAQQTDRSSPVRPSSEKNDCCRGKRDGINSLERKLKRRLEREGLSSERWERVKKMRTPKKKKIKLSHPKDMNNFKLERERSYELVRSAETHSLPSDTSYSEQEDSEDEDAICPAVSCLQPEGDEVDWVQCDGSCNQWFHQVCVGVSPEMAEKEDYICVRCTVKDAPSRK
For the protein B4, the “demethylation assay, mass spectrometry” value was “demethylation of tri- and dimethyl H3K4 peptides phosphorylated at T6 (H3K4me3T6ph and H3K4me2T6ph) is severely impaired” in series [2]; “Recombinant, purified JARID1B (FIG. 9) efficiently demethylates H3K4me3 and H3K4me2 peptides” in series [3]; “Recombinant, purified JARID1B (FIG. 9) efficiently demethylates H3K4me3 and H3K4me2 peptides” in series [4]; “demethylation of tri- and dimethyl H3K4 peptides phosphorylated at T6 (H3K4me3T6ph and H3K4me2T6ph) is severely impaired” in series [5].
